Article PMC5269589, “Functional characterization of NES and GES responsible for the biosynthesis of (E)-nerolidol and (E,E)-geranyllinalool in Tripterygium wilfordii” (Scientific Reports, 2017)

How the values were obtained:
[1] = substrate: CC(C)=CCC/C(C)=C/CC/C(C)=C/CO[P@@](=O)(O)OP(=O)(O)O; test: GC-MS of hexane-extracted product; Michaelis-Menten fit; type: biochemical, Tripterygium wilfordii; conditions: 200 mM K+, pH 7.5, 30 °C, 10 min, Mg2+ 10 mM in text (20 mM in Figure 5 legend), product (E)-nerolidol
[2] = substrate: CC(C)=CCC/C(C)=C/CC/C(C)=C/CC/C(C)=C/COP(=O)(O)OP(=O)(O)O; test: as above; type: biochemical, Tripterygium wilfordii; conditions: pH 7.5, 30 °C, 10 min, Mg2+ 10 mM in text (20 mM in Figure 5 legend), no added K+ stated, product (E,E)-geranyllinalool

Protein | Km [1] [µM] | Km [2] [µM]
TwNES (Tripterygium wilfordii) (protein, MBP fusion (pMAL-c2X) from E. coli Transetta (DE3), amylose resin; tag cleavage not mentioned; gene synthesized) MAFFGSSRSSIIPLKTISQIVTADSTNKRGTVDSNHKSAPTTPLNDRICTEHAHKVKDFKQIINIAGEDPSEGLAIIDAVQRLGVDHHFQDEIHTILQKHYTLATGTTTHGDCMITSLRFRLLRQEGYYVSADVFEGLKDEEGKFDQNLSGDIKGLMALYEASQLSMEGENILDEARDYSSRLLNECVTQLDHDQARIVEHTLTHPHHKSLARFMAKNFLRDFHGTNGWIDDLKKLAKVDFDMAQSTYQKEVVQISQWWKELGLAEELKFARDQPVKWYIWTTTCHQDPSFSELRINLTKPISFVYLIDDIFDVYGTPQEVTDFTEAVDRWDHDAIDQLPYYMKICFKALDDITNEISYKVYKQHGWNPLDSLRKSWGRLCNAFLTEAQWFASGHLPKAEEYLENGIISSGVPVVLLHLFFLLGEGVTQKSVEMIDNTPAIVSAAAAILRLWDDLGSAKDEDQDGKDGSYLACYTNENPGCSLEDAEKHVKSKICDEWKQLNKECLSQKNPFSPSFLKACLNVSRMVPLMYEYDENRRLPRLEEFLKSILIK | 12.700 | –
TwGES1 (Tripterygium wilfordii) (protein, MBP fusion (pMAL-c2X) from E. coli Transetta (DE3), amylose resin; tag cleavage not mentioned) MDFSDSSIISLVDKIKVEMFVDMDVYSFVAPSAYDTAWLAMVPDSRSPVQPLFMDCLDWVLNNQREEGFWGDIDGHGMPAIESLTSTLACLIALKKWNVGESAIQKGLDFVRENAEMYIEEIKDCCPRRFAVIFPAMLEQASSLGLDNILPNHVKDTVHVMDIFIEHRRIVEKEELVETYHYPPLLAYLEALPPNKIDKDQIVTHLSSDGSLFQSPSATASAFMITGNKDCLAYLKAIIQRCPNGVPATYPIDEDLIRLCMVNHLQRLGLAEHFTKEIKNMLTSVHRNYSTNHRSTVKDSNLLHLYKDSLAFWLLRMNGYIVSPGSFCWFMQRGDIKDRIENNYYDDDFSSVMLNVYKATDLMFPGEEDQLEEARCFARKLLENVISTTSGNQNHLHKLIGHELKTPWLARLDHLEHKMWITQEHDSTLLWMGKFSFHRLSYDNSERLTQLAVQNYKYRQSIYRKELVELKRWSREWGLSEMGFGREKTTYCYFVVAASTSLPKHSDVRLIAAKIGILITVADDFFDEHASLDELQNLTHAIQRWDGKGLSGHSRTIFEVLDDLVREIAKKYKEQQEGIDVSDSLKNLWYETFLAWLVESQWSKNGHIPSMDEYIETGMISIASHTLLLPASCFLNPSLAYHQLKPLEYENITKLLMLITRLLNDTQSYQKEQKSGKKNFVLLYLKENPEAEIEDAIEYVGEIIEKKKKEFFEYALMDGLSELPKECRHLHLACLKVYQMLFNSSNRYDSNTELIQDIQEAFYQSPDPEIGVSSSKSSSIKSTKKPVSLPQHLSFKKQNNQTTSYYHSSFDYRGSNNIAVKWASWPKWRVDGYNKSMFVTPKFSPCFI | – | 2.039
